Several values for one entry are separate records, joined by “and”; a condition that tells them apart may be missing. Equal entries are not always repeated.
Tests used:
Experiment in all cases: cell-based or functional assay
[1] = target: HLA-DR of the DR^int donor (HLA-DRB1 variant bound with intermediate affinity by MVR), on B cells and T cells (human)
[2] = target: HLA-DR of the DR^weak donor (HLA-DRB1 variant bound weakly by MVR), on B cells, T cells and EBV LCLs (human)
[3] = target: HLA-DR of the DR^str donor (HLA-DRB1 variant bound strongly by MVR), on B cells, T cells and EBV LCLs (human)

frequency of CAR T cells with two or more exhaustion markers (LAG-3, Tim-3, CTLA-4, PD-1) [1]: 65.8%
frequency of CAR T cells with two or more exhaustion markers [2]: 9.2%
frequency of CD4+ MVR-CAR T cells with two or more polyfunctional markers after co-culture with DR^weak-EBV-LCLs [2]: 31.6%
frequency of CD8+ MVR-CAR T cells with two or more polyfunctional markers after co-culture with DR^weak-EBV-LCLs [2]: 26.3%
frequency of Tim-3 expressing CAR T cells [2]: 60.7%
surface CAR expression (MFI) relative to CD19 CAR T cells [2]: 2 fold lower
frequency of CD4+ MVR-CAR T cells with two or more polyfunctional markers after co-culture with DR^str-EBV-LCLs [3]: 71.3%
frequency of CD8+ MVR-CAR T cells with two or more polyfunctional markers after co-culture with DR^str-EBV-LCLs [3]: 29.4%
granule influx into DR^str B cells and DR^str EBV LCLs relative to CD19 CAR T cells [3]: 2 fold and 4 fold
granule transfer rate to DR^str-EBV-LCLs relative to DR^weak-EBV-LCLs [3]: 2 to 3 times higher
B1: MVR CAR (second-generation HLA-DR CAR, FLAG-tagged, from pELPS-FLAGMVRBBz, expressed on T cells or EBV LCLs) (protein)
chain: DYKDDDDKDIQMTQSSSYLSVSLGGRVTITCKASDHINNWLAWYQQKPGNAPRLLISGATSLETGVPSRFSGSGSGKDYTLSITSLQTEDVATYYCQQYWSTPFTFGSGTKLEIKGGGGSGGGGSGGGGSQVQLKESGPGLVAPSQSLSITSTVSGFSLSRYSVHWVRQPPGKGLEWLGMIWGGGSTDYNSALKSRLSISKDNSKSQVFLKMNSLQTDDTAMYYCARNEGDTTAGTWFAYWGQGTLVTVSSTTTPAPRPPTPAPTIASQPLSLRPEACRPAAGGAVHTRGLDFACDIYIWAPLAGTCGVLLLSLVITLYCKRGRKKLLYIFKQPFMRPVQTTQEEDGCSCRFPEEEEGGCELRVKFSRSADAPAYKQGQNQLYNELNLGRREEYDVLDKRRGRDPEMGGKPRRKNPQEGLYNELQKDKMAEAYSEIGMKGERRRGKGHDGLYQGLSTATKDTYDALHMQALPPR
